Data as given in patent US20260216242A1 (ALMAC DISCOVERY, published 2026).

T1: Human ALPP (leucine zipper) (human)
T1 construct: Soluble human ALPP fused to a disulphide stabilised leucine zipper and a His tag; The whole entry is the construct; also called hALPP; PLAP
T1 chain: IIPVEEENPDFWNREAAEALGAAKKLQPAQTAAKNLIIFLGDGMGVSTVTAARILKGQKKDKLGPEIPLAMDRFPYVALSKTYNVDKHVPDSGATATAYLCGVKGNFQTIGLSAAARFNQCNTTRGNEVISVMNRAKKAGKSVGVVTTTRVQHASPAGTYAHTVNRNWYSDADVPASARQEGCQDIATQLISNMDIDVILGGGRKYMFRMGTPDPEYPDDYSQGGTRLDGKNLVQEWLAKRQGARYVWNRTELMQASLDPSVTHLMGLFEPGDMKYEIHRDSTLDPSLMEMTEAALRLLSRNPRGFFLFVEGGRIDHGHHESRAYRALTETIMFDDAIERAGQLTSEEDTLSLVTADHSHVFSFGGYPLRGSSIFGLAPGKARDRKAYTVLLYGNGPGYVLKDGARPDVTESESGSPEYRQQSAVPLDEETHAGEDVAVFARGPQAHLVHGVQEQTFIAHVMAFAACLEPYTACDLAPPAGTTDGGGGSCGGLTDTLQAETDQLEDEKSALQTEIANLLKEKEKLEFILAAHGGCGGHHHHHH

B1: D10 A06-hFc (S239C + S442C), [G4S]1 linkers (Fc fusion)
chain 1: QVQLVESGGGLVQPGGSLRLSCAASGSIFSVNTMGWYRQAPGKQRDLVAVATSGGTIHYADSVKGRFTISRDNAKNTVYLQMNSLKPEDTAVYYCNLVVPYGMIAGDHDYWGQGTKVTVSSGGGGSEPKSSDKTHTCPPCPAPELLGGPCVFLFPPKPKDTLMISRTPEVTCVVVDVSHEDPEVKFNWYVDGVEVHNAKTKPREEQYNSTYRVVSVLTVLHQDWLNGKEYKCKVSNKALPAPIEKTISKAKGQPREPQVYTLPPSRDELTKNQVSLYCLVKGFYPSDIAVEWESNGQPENNYKTTPPVLDSDGSFFLYSKLTVDKSRWQQGNVFSCSVMHEALHNHYTQKSLCLSPGK
chain 2: QVHLVESGGGLVQAGGSLRLSCAASGRTFLSMGWFRQAPGKEREFVAAISWTGGSTGYADSVKGRFTISRESDKETMYLQMNSLKPEDTAVYYCAARGDVYYGGDDATRYKYWGQGTQVTVSSGGGGSEPKSSDKTHTCPPCPAPELLGGPCVFLFPPKPKDTLMISRTPEVTCVVVDVSHEDPEVKFNWYVDGVEVHNAKTKPREEQYNSTYRVVSVLTVLHQDWLNGKEYKCKVSNKALPAPIEKTISKAKGQPREPQVYTLPPSRDELTKNQVSLTCLVKGFYPSDIAVEWESNGQPENNYKTTPPVLDSDGSFFLTSKLTVDKSRWQQGNVFSCSVMHEALHNHYTQKSLCLSPGK
notes: Biparatopic heterodimer; also called #666
B2: D10 E06-hFc (S239C + S442C), [G4S]1 linkers (Fc fusion)
chain 1: QVQLVESGGGLVQPGGSLRLSCAASGSIFSVNTMGWYRQAPGKQRDLVAVATSGGTIHYADSVKGRFTISRDNAKNTVYLQMNSLKPEDTAVYYCNLVVPYGMIAGDHDYWGQGTKVTVSSGGGGSEPKSSDKTHTCPPCPAPELLGGPCVFLFPPKPKDTLMISRTPEVTCVVVDVSHEDPEVKFNWYVDGVEVHNAKTKPREEQYNSTYRVVSVLTVLHQDWLNGKEYKCKVSNKALPAPIEKTISKAKGQPREPQVYTLPPSRDELTKNQVSLYCLVKGFYPSDIAVEWESNGQPENNYKTTPPVLDSDGSFFLYSKLTVDKSRWQQGNVFSCSVMHEALHNHYTQKSLCLSPGK
chain 2: QVHLVESGGGLVQAGGSLRLSCAASRRSFSEYAMGWFRQAPGKEREFVAAIGWSGVIEYADSVKGRFTISRDNAKDTVYLQMNSLKPEDTAVYYCAAGLGIRVVSQTPAYWGQGTQVTVSSGGGGSEPKSSDKTHTCPPCPAPELLGGPCVFLFPPKPKDTLMISRTPEVTCVVVDVSHEDPEVKFNWYVDGVEVHNAKTKPREEQYNSTYRVVSVLTVLHQDWLNGKEYKCKVSNKALPAPIEKTISKAKGQPREPQVYTLPPSRDELTKNQVSLTCLVKGFYPSDIAVEWESNGQPENNYKTTPPVLDSDGSFFLTSKLTVDKSRWQQGNVFSCSVMHEALHNHYTQKSLCLSPGK
notes: Biparatopic heterodimer
B3: D10 E10-hFc (S239C + S442C), [G4S]1 linkers (Fc fusion)
chain 1: QVQLVESGGGLVQPGGSLRLSCAASGSIFSVNTMGWYRQAPGKQRDLVAVATSGGTIHYADSVKGRFTISRDNAKNTVYLQMNSLKPEDTAVYYCNLVVPYGMIAGDHDYWGQGTKVTVSSGGGGSEPKSSDKTHTCPPCPAPELLGGPCVFLFPPKPKDTLMISRTPEVTCVVVDVSHEDPEVKFNWYVDGVEVHNAKTKPREEQYNSTYRVVSVLTVLHQDWLNGKEYKCKVSNKALPAPIEKTISKAKGQPREPQVYTLPPSRDELTKNQVSLYCLVKGFYPSDIAVEWESNGQPENNYKTTPPVLDSDGSFFLYSKLTVDKSRWQQGNVFSCSVMHEALHNHYTQKSLCLSPGK
chain 2: QVQLVESGGGLVQAGGSLRLSCAVSGRALSDYNIGWFRQAPGKEREFVARKTWDGSSTRYDDSVKGRFTVSIEDAKNTAYLQMSSLKTEDTAVYYCAAGRYSRARGWEYDYWGQGTQVTVSSGGGGSEPKSSDKTHTCPPCPAPELLGGPCVFLFPPKPKDTLMISRTPEVTCVVVDVSHEDPEVKFNWYVDGVEVHNAKTKPREEQYNSTYRVVSVLTVLHQDWLNGKEYKCKVSNKALPAPIEKTISKAKGQPREPQVYTLPPSRDELTKNQVSLTCLVKGFYPSDIAVEWESNGQPENNYKTTPPVLDSDGSFFLTSKLTVDKSRWQQGNVFSCSVMHEALHNHYTQKSLCLSPGK
notes: Biparatopic heterodimer; also called #668
B4: D10 F05-hFc (S239C + S442C), [G4S]1 linkers (Fc fusion)
chain 1: QVQLVESGGGLVQPGGSLRLSCAASGSIFSVNTMGWYRQAPGKQRDLVAVATSGGTIHYADSVKGRFTISRDNAKNTVYLQMNSLKPEDTAVYYCNLVVPYGMIAGDHDYWGQGTKVTVSSGGGGSEPKSSDKTHTCPPCPAPELLGGPCVFLFPPKPKDTLMISRTPEVTCVVVDVSHEDPEVKFNWYVDGVEVHNAKTKPREEQYNSTYRVVSVLTVLHQDWLNGKEYKCKVSNKALPAPIEKTISKAKGQPREPQVYTLPPSRDELTKNQVSLYCLVKGFYPSDIAVEWESNGQPENNYKTTPPVLDSDGSFFLYSKLTVDKSRWQQGNVFSCSVMHEALHNHYTQKSLCLSPGK
chain 2: QVQLVESGGGLVQAGGSLRLSCAASGRAFGDYNIGWFRQAPGKEREFVARRTWDGSSTRYDDSVKGRFTVSIDNAKNTAYLQMNSLKTEDTAVYYCAAGRYSRVRGWEYDYWGQGTQVTVSSGGGGSEPKSSDKTHTCPPCPAPELLGGPCVFLFPPKPKDTLMISRTPEVTCVVVDVSHEDPEVKFNWYVDGVEVHNAKTKPREEQYNSTYRVVSVLTVLHQDWLNGKEYKCKVSNKALPAPIEKTISKAKGQPREPQVYTLPPSRDELTKNQVSLTCLVKGFYPSDIAVEWESNGQPENNYKTTPPVLDSDGSFFLTSKLTVDKSRWQQGNVFSCSVMHEALHNHYTQKSLCLSPGK
notes: Biparatopic heterodimer; also called #669
B5: A06 E06-hFc (S239C + S442C), [G4S]1 linkers (Fc fusion)
chain 1: QVHLVESGGGLVQAGGSLRLSCAASGRTFLSMGWFRQAPGKEREFVAAISWTGGSTGYADSVKGRFTISRESDKETMYLQMNSLKPEDTAVYYCAARGDVYYGGDDATRYKYWGQGTQVTVSSGGGGSEPKSSDKTHTCPPCPAPELLGGPCVFLFPPKPKDTLMISRTPEVTCVVVDVSHEDPEVKFNWYVDGVEVHNAKTKPREEQYNSTYRVVSVLTVLHQDWLNGKEYKCKVSNKALPAPIEKTISKAKGQPREPQVYTLPPSRDELTKNQVSLYCLVKGFYPSDIAVEWESNGQPENNYKTTPPVLDSDGSFFLYSKLTVDKSRWQQGNVFSCSVMHEALHNHYTQKSLCLSPGK
chain 2: QVHLVESGGGLVQAGGSLRLSCAASRRSFSEYAMGWFRQAPGKEREFVAAIGWSGVIEYADSVKGRFTISRDNAKDTVYLQMNSLKPEDTAVYYCAAGLGIRVVSQTPAYWGQGTQVTVSSGGGGSEPKSSDKTHTCPPCPAPELLGGPCVFLFPPKPKDTLMISRTPEVTCVVVDVSHEDPEVKFNWYVDGVEVHNAKTKPREEQYNSTYRVVSVLTVLHQDWLNGKEYKCKVSNKALPAPIEKTISKAKGQPREPQVYTLPPSRDELTKNQVSLTCLVKGFYPSDIAVEWESNGQPENNYKTTPPVLDSDGSFFLTSKLTVDKSRWQQGNVFSCSVMHEALHNHYTQKSLCLSPGK
notes: Biparatopic heterodimer; also called #671
B6: A06 E10-hFc (S239C + S442C), [G4S]1 linkers (Fc fusion)
chain 1: QVHLVESGGGLVQAGGSLRLSCAASGRTFLSMGWFRQAPGKEREFVAAISWTGGSTGYADSVKGRFTISRESDKETMYLQMNSLKPEDTAVYYCAARGDVYYGGDDATRYKYWGQGTQVTVSSGGGGSEPKSSDKTHTCPPCPAPELLGGPCVFLFPPKPKDTLMISRTPEVTCVVVDVSHEDPEVKFNWYVDGVEVHNAKTKPREEQYNSTYRVVSVLTVLHQDWLNGKEYKCKVSNKALPAPIEKTISKAKGQPREPQVYTLPPSRDELTKNQVSLYCLVKGFYPSDIAVEWESNGQPENNYKTTPPVLDSDGSFFLYSKLTVDKSRWQQGNVFSCSVMHEALHNHYTQKSLCLSPGK
chain 2: QVQLVESGGGLVQAGGSLRLSCAVSGRALSDYNIGWFRQAPGKEREFVARKTWDGSSTRYDDSVKGRFTVSIEDAKNTAYLQMSSLKTEDTAVYYCAAGRYSRARGWEYDYWGQGTQVTVSSGGGGSEPKSSDKTHTCPPCPAPELLGGPCVFLFPPKPKDTLMISRTPEVTCVVVDVSHEDPEVKFNWYVDGVEVHNAKTKPREEQYNSTYRVVSVLTVLHQDWLNGKEYKCKVSNKALPAPIEKTISKAKGQPREPQVYTLPPSRDELTKNQVSLTCLVKGFYPSDIAVEWESNGQPENNYKTTPPVLDSDGSFFLTSKLTVDKSRWQQGNVFSCSVMHEALHNHYTQKSLCLSPGK
notes: Biparatopic heterodimer
B7: A06 F05-hFc (S239C + S442C), [G4S]1 linkers (Fc fusion)
chain 1: QVHLVESGGGLVQAGGSLRLSCAASGRTFLSMGWFRQAPGKEREFVAAISWTGGSTGYADSVKGRFTISRESDKETMYLQMNSLKPEDTAVYYCAARGDVYYGGDDATRYKYWGQGTQVTVSSGGGGSEPKSSDKTHTCPPCPAPELLGGPCVFLFPPKPKDTLMISRTPEVTCVVVDVSHEDPEVKFNWYVDGVEVHNAKTKPREEQYNSTYRVVSVLTVLHQDWLNGKEYKCKVSNKALPAPIEKTISKAKGQPREPQVYTLPPSRDELTKNQVSLYCLVKGFYPSDIAVEWESNGQPENNYKTTPPVLDSDGSFFLYSKLTVDKSRWQQGNVFSCSVMHEALHNHYTQKSLCLSPGK
chain 2: QVQLVESGGGLVQAGGSLRLSCAASGRAFGDYNIGWFRQAPGKEREFVARRTWDGSSTRYDDSVKGRFTVSIDNAKNTAYLQMNSLKTEDTAVYYCAAGRYSRVRGWEYDYWGQGTQVTVSSGGGGSEPKSSDKTHTCPPCPAPELLGGPCVFLFPPKPKDTLMISRTPEVTCVVVDVSHEDPEVKFNWYVDGVEVHNAKTKPREEQYNSTYRVVSVLTVLHQDWLNGKEYKCKVSNKALPAPIEKTISKAKGQPREPQVYTLPPSRDELTKNQVSLTCLVKGFYPSDIAVEWESNGQPENNYKTTPPVLDSDGSFFLTSKLTVDKSRWQQGNVFSCSVMHEALHNHYTQKSLCLSPGK

Molecular target: T1, Human ALPP (leucine zipper)
Experiment: BLI, KD app (antigen immobilised on AR2G sensor)
Protocol: Binding kinetics were determined using the Biolayer Interferometry (BLI) Octet K2 or R4 system (Sartorius). […] For KD apparent measurements, the ALPP proteins were immobilised in sodium acetate pH5 buffer to AR2G sensors using amine coupling. To measure 1:1 interactions, AHC biosensors were used to immobilise Fc-fused proteins. All assays were conducted in HBS-EP with a plate temperature of 25° C. Ka (M⁻¹s⁻¹), Kd (s⁻¹) and KD (nM) values were determined using Octet Data Analysis High Throughput software (Sartorius) for Biolayer Interferometry.

**Q.** What does the source list for B1?
**A.** Kd: < 0.01 nM; kon: 332000 M⁻¹ s⁻¹

**Q.** Which Kd does the source give for B2 here?
**A.** 0.048 nM

**Q.** What about the kon of the same binder?
**A.** 271000 M⁻¹ s⁻¹

**Q.** How did the Kd turn out when B3 was run?
**A.** < 0.01 nM

**Q.** And the kon?
**A.** 374000 M⁻¹ s⁻¹

**Q.** What does the source list for B4?
**A.** Kd: < 0.01 nM; koff: < 1e-07 s⁻¹; kon: 430000 M⁻¹ s⁻¹

**Q.** For B5, which Kd is on record?
**A.** 0.0202 nM

**Q.** What about the kon of the same binder?
**A.** 602000 M⁻¹ s⁻¹

**Q.** Which kon does the source give for B6 here?
**A.** 516000 M⁻¹ s⁻¹

**Q.** B7 was tested. Which kon did it give?
**A.** 422000 M⁻¹ s⁻¹
